Data as given in patent US20220389118A1 (Chugai, published 2022).

T1: human FcγRIIa type R extracellular domain with C-terminal His tag (human, UniProt P12318 34-217)
T1 construct: extracellular domain; also called FcγRIIaR; FcγRIIa(R)
T1 sequence (looked up): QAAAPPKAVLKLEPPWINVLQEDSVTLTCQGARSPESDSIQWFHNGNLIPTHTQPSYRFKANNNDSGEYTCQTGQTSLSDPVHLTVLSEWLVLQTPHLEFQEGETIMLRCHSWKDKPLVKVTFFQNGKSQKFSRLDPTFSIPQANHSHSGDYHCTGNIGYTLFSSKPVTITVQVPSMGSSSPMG

T2: human FcγRIIb extracellular domain with C-terminal His tag (human, UniProt P31994 43-217)
T2 construct: extracellular domain
T2 sequence (looked up): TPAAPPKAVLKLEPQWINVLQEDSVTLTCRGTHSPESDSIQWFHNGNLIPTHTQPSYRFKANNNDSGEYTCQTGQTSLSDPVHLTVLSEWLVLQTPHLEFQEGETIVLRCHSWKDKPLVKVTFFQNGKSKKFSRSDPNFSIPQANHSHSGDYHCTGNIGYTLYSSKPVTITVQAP


Experiments:
Experiment in all cases: SPR (Biacore)
[1] = target: T1, human FcγRIIa type R extracellular …
[2] = target: T2, human FcγRIIb extracellular domain with …
[3] = target: T3, human FcγRIa extracellular domain with C-terminal His tag (human, UniProt P12314 16-292)
T3 construct: extracellular domain
T3 sequence (P12314 16-292): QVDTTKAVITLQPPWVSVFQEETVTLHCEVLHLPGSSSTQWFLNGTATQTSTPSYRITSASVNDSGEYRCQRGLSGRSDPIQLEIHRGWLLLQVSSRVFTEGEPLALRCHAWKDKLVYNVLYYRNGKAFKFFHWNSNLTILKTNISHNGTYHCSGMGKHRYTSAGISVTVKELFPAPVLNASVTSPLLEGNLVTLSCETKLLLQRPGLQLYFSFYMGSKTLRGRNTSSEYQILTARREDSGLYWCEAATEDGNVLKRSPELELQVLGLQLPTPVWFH

Row | Binder | Kd [1] [nM] | Kd [2] [nM] | Kd [3] [nM]
1 | IL6R-BP445/IL6R-L (antibody, human IgG1, kappa, copies: 2 + 2) heavy: QVQLQESGPGLVKPSETLSLTCAVSGHSISHDHAWSWVRQPPGEGLEWIGFISYSGITNYNPSLQGRVTISRDNSKNTLYLQMNSLRAEDTAVYYCARSLARTTAMDYWGEGTLVTVSSASTKGPSVFPLAPSSKSTSGGTAALGCLVKDYFPEPVTVSWNSGALTSGVHTFPAVLQSSGLYSLSSVVTVPSSSLGTQTYICNVNHKPSNTKVDKKVEPKSCDKTHTCPPCPAPDLLGDDSVFLFPPKPKDTLMISRTPEVTCVVIDVAEEDGEVKFNWYVDGVEVHNAKTKPREEQYNSTYRVVSVLTVLHQDWLNGKEYKCKVSNKALPRPIEKTISKAKGQPREPQVYTLPPSRDELTKNQVSLTCLVKGFYPSDIAVEWESNGQPENNYKTTPPVLDSDGSFFLYSKLTVDKSRWQQGNVFSCSVMHEALHNHYTQESLSLSP light: not shown | 80 | 2.6 | 2
2 | IL6R-BP480/IL6R-L (antibody, human IgG1, kappa, copies: 2 + 2) heavy: QVQLQESGPGLVKPSETLSLTCAVSGHSISHDHAWSWVRQPPGEGLEWIGFISYSGITNYNPSLQGRVTISRDNSKNTLYLQMNSLRAEDTAVYYCARSLARTTAMDYWGEGTLVTVSSASTKGPSVFPLAPSSKSTSGGTAALGCLVKDYFPEPVTVSWNSGALTSGVHTFPAVLQSSGLYSLSSVVTVPSSSLGTQTYICNVNHKPSNTKVDKKVEPKSCDKTHTCPPCPAPDLLGDDSVFLFPPKPKDTLMISRTPEVTCVVVDLSEDDGEVKFNWYVDGVEVHNAKTKPREEQYNSTYRVVSVLTVLHQDWLNGKEYKCKVSNKALPAPIEKTISKAKGQPREPQVYTLPPSRDELTKNQVSLTCLVKGFYPSDIAVEWESNGQPENNYKTTPPVLDSDGSFFLYSKLTVDKSRWQQGNVFSCSVMHEALHNHYTQESLSLSP light: not shown | 6300 | 200 | 
3 | IL6R-BP506/IL6R-L (antibody, human IgG1, kappa, copies: 2 + 2) heavy: QVQLQESGPGLVKPSETLSLTCAVSGHSISHDHAWSWVRQPPGEGLEWIGFISYSGITNYNPSLQGRVTISRDNSKNTLYLQMNSLRAEDTAVYYCARSLARTTAMDYWGEGTLVTVSSASTKGPSVFPLAPSSKSTSGGTAALGCLVKDYFPEPVTVSWNSGALTSGVHTFPAVLQSSGLYSLSSVVTVPSSSLGTQTYICNVNHKPSNTKVDKKVEPKSCDKTHTCPPCPAPDLLGDDSVFLFPPKPKDTLMISRTPEVTCVVIDVAEEDGPVKFNWYVDGVEVHNAKTKPREEQDNSTYRVVSVLTVLHQDWLNGKEYKCKVSNKALPRPIEKTISKAKGQPREPQVYTLPPSRDELTKNQVSLTCLVKGFYPSDIAVEWESNGQPENNYKTTPPVLDSDGSFFLYSKLTVDKSRWQQGNVFSCSVMHEALHNHYTQESLSLSP light: not shown | 120 | 3.4 | 3.1
4 | IL6R-BP435/IL6R-L (antibody, human IgG1, kappa, copies: 2 + 2) heavy: QVQLQESGPGLVKPSETLSLTCAVSGHSISHDHAWSWVRQPPGEGLEWIGFISYSGITNYNPSLQGRVTISRDNSKNTLYLQMNSLRAEDTAVYYCARSLARTTAMDYWGEGTLVTVSSASTKGPSVFPLAPSSKSTSGGTAALGCLVKDYFPEPVTVSWNSGALTSGVHTFPAVLQSSGLYSLSSVVTVPSSSLGTQTYICNVNHKPSNTKVDKKVEPKSCDKTHTCPPCPAPDLLGDDSVFLFPPKPKDTLMISRTPEVTCVVVDVSDEDGEVKFNWYVDGVEVHNAKTKPREEQDNSTYRVVSVLTVLHQDWLNGKEYKCKVSNAALPRPTEKTISKAKGQPREPQVYTLPPSRDELTKNQVSLTCLVKGFYPSDIAVEWESNGQPENNYKTTPPVLDSDGSFFLYSKLTVDKSRWQQGNVFSCSVMHEALHNHYTQESLSLSP light: not shown |  |  | 1
5 | IL6R-BP268/IL6R-L (antibody, human IgG1, kappa, copies: 2 + 2) heavy: QVQLQESGPGLVKPSETLSLTCAVSGHSISHDHAWSWVRQPPGEGLEWIGFISYSGITNYNPSLQGRVTISRDNSKNTLYLQMNSLRAEDTAVYYCARSLARTTAMDYWGEGTLVTVSSASTKGPSVFPLAPSSKSTSGGTAALGCLVKDYFPEPVTVSWNSGALTSGVHTFPAVLQSSGLYSLSSVVTVPSSSLGTQTYICNVNHKPSNTKVDKKVEPKSCDKTHTCPPCPAPDLLGDDSVFLFPPKPKDTLMISRTPEVTCVVVDVSEEDGEVKFNWYVDGVEVHNAKTKPREEQDNSTYRVVSVLTVLHQDWLNGKEYKCKVSNKALPAPIEKTISKAKGQPREPQVYTLPPSRDELTKNQVSLTCLVKGFYPSDIAVEWESNGQPENNYKTTPPVLDSDGSFFLYSKLTVDKSRWQQGNVFSCSVMHEALHNHYTQESLSLSP light: not shown |  | 92 | 4.5
6 | IL6R-BP426/IL6R-L (antibody, human IgG1, kappa, copies: 2 + 2) heavy: QVQLQESGPGLVKPSETLSLTCAVSGHSISHDHAWSWVRQPPGEGLEWIGFISYSGITNYNPSLQGRVTISRDNSKNTLYLQMNSLRAEDTAVYYCARSLARTTAMDYWGEGTLVTVSSASTKGPSVFPLAPSSKSTSGGTAALGCLVKDYFPEPVTVSWNSGALTSGVHTFPAVLQSSGLYSLSSVVTVPSSSLGTQTYICNVNHKPSNTKVDKKVEPKSCDKTHTCPPCPAPDLLGDDSVFLFPPKPKDTLMISRTPEVTCVVVDVAEDDGEVKFNWYVDGVEVHNAKTKPREEQYNSTYRVVSVLTVLHQDWLNGKEYKCKVSNKALPRPIEKTISKAKGQPREPQVYTLPPSRDELTKNQVSLTCLVKGFYPSDIAVEWESNGQPENNYKTTPPVLDSDGSFFLYSKLTVDKSRWQQGNVFSCSVMHEALHNHYTQESLSLSP light: not shown |  |  | 1
7 | IL6R-BP490/IL6R-L (antibody, human IgG1, kappa, copies: 2 + 2) heavy: QVQLQESGPGLVKPSETLSLTCAVSGHSISHDHAWSWVRQPPGEGLEWIGFISYSGITNYNPSLQGRVTISRDNSKNTLYLQMNSLRAEDTAVYYCARSLARTTAMDYWGEGTLVTVSSASTKGPSVFPLAPSSKSTSGGTAALGCLVKDYFPEPVTVSWNSGALTSGVHTFPAVLQSSGLYSLSSVVTVPSSSLGTQTYICNVNHKPSNTKVDKKVEPKSCDKTHTCPPCPAPELLGDDSVFLFPPKPKDTLMISRTPEVTCVVIDVAEEDGEVKFNWYVDGVEVHNAKTKPREEQYNSTYRVVSVLTVLHQDWLNGKEYKCKVSNKALPRPIEKTISKAKGQPREPQVYTLPPSRDELTKNQVSLTCLVKGFYPSDIAVEWESNGQPENNYKTTPPVLDSDGSFFLYSKLTVDKSRWQQGNVFSCSVMHEALHNHYTQESLSLSP light: not shown | 110 | 2.4 | 4.5

The remaining lines, values ahead:

Row | Kd [1] [nM] | Kd [2] [nM] | Kd [3] [nM] | Binder
8 |  | 9.7 | 8.3 | IL6R-BP495/IL6R-L (antibody, human IgG1, kappa, copies: 2 + 2) heavy: QVQLQESGPGLVKPSETLSLTCAVSGHSISHDHAWSWVRQPPGEGLEWIGFISYSGITNYNPSLQGRVTISRDNSKNTLYLQMNSLRAEDTAVYYCARSLARTTAMDYWGEGTLVTVSSASTKGPSVFPLAPSSKSTSGGTAALGCLVKDYFPEPVTVSWNSGALTSGVHTFPAVLQSSGLYSLSSVVTVPSSSLGTQTYICNVNHKPSNTKVDKKVEPKSCDKTHTCPPCPAPELLGDDSVFLFPPKPKDTLMISRTPEVTCVVVDVGEEDGEVKFNWYVDGVEVHNAKTKPREEQDNSTYRVVSVLTVLHQDWLNGKEYKCKVSNKALPRPIEKTISKAKGQPREPQVYTLPPSRDELTKNQVSLTCLVKGFYPSDIAVEWESNGQPENNYKTTPPVLDSDGSFFLYSKLTVDKSRWQQGNVFSCSVMHEALHNHYTQESLSLSP light: not shown
9 | 350 |  | 7.4 | IL6R-BP264/IL6R-L (antibody, human IgG1, kappa, copies: 2 + 2) heavy: QVQLQESGPGLVKPSETLSLTCAVSGHSISHDHAWSWVRQPPGEGLEWIGFISYSGITNYNPSLQGRVTISRDNSKNTLYLQMNSLRAEDTAVYYCARSLARTTAMDYWGEGTLVTVSSASTKGPSVFPLAPSSKSTSGGTAALGCLVKDYFPEPVTVSWNSGALTSGVHTFPAVLQSSGLYSLSSVVTVPSSSLGTQTYICNVNHKPSNTKVDKKVEPKSCDKTHTCPPCPAPDLLGDDSVFLFPPKPKDTLMISRTPEVTCVVVDVSEEDGEVKFNWYVDGVEVHNAKTKPREEQDNSTYRVVSVLTVLHQDWLNGKEYKCKVSNKALPRPIEKTISKAKGQPREPQVYTLPPSRDELTKNQVSLTCLVKGFYPSDIAVEWESNGQPENNYKTTPPVLDSDGSFFLYSKLTVDKSRWQQGNVFSCSVMHEALHNHYTQESLSLSP light: not shown
10 | 100 | 2.9 | 2.6 | IL6R-BP507/IL6R-L (antibody, human IgG1, kappa, copies: 2 + 2) heavy: QVQLQESGPGLVKPSETLSLTCAVSGHSISHDHAWSWVRQPPGEGLEWIGFISYSGITNYNPSLQGRVTISRDNSKNTLYLQMNSLRAEDTAVYYCARSLARTTAMDYWGEGTLVTVSSASTKGPSVFPLAPSSKSTSGGTAALGCLVKDYFPEPVTVSWNSGALTSGVHTFPAVLQSSGLYSLSSVVTVPSSSLGTQTYICNVNHKPSNTKVDKKVEPKSCDKTHTCPPCPAPDLLGDDSVFLFPPKPKDTLMISRTPEVTCVVIDVAEEDGPVKFNWYVDGVEVHNAKTKPREEQYNSTYRVVSVLTVLHQDWLNGKEYKCKVSNKALPRPIEKTISKAKGQPREPQVYTLPPSRDELTKNQVSLTCLVKGFYPSDIAVEWESNGQPENNYKTTPPVLDSDGSFFLYSKLTVDKSRWQQGNVFSCSVMHEALHNHYTQESLSLSP light: not shown
11 |  | 25 | 2.1 | IL6R-BP501/IL6R-L (antibody, human IgG1, kappa, copies: 2 + 2) heavy: QVQLQESGPGLVKPSETLSLTCAVSGHSISHDHAWSWVRQPPGEGLEWIGFISYSGITNYNPSLQGRVTISRDNSKNTLYLQMNSLRAEDTAVYYCARSLARTTAMDYWGEGTLVTVSSASTKGPSVFPLAPSSKSTSGGTAALGCLVKDYFPEPVTVSWNSGALTSGVHTFPAVLQSSGLYSLSSVVTVPSSSLGTQTYICNVNHKPSNTKVDKKVEPKSCDKTHTCPPCPAPELLGDDSVFLFPPKPKDTLMISRTPEVTCVVIDVAEEDGEVKFNWYVDGVEVHNAKTKPREEQYNSTYRVVSVLTVLHQDWLNGKEYKCKVSNKALPAPIEKTISKAKGQPREPQVYTLPPSRDELTKNQVSLTCLVKGFYPSDIAVEWESNGQPENNYKTTPPVLDSDGSFFLYSKLTVDKSRWQQGNVFSCSVMHEALHNHYTQESLSLSP light: not shown
